B1: high affinity PDL-1 molecule L3C7d (ligand)
chain: WTVTVPKDLYVVEYGSNMTIECKFPVEKQLDLAALEVHWFMEDKNIFSFVHGEEDLKVQHSSYRQRARLLKDQLSLGNAALQITDVKLQDAGVYTCLIGYKGGADYKRITVKVNAPYNKINQRILVVDPVTSEHELTCQAEGYPKAEVIWTSSDHQVLSGKTTTTNSKREEKLFNVTSTLRINTTTNEIFYCTFRRLDPEENHTAELVIPEL
B2: high affinity PDL-1 molecule L3C7a (ligand)
chain: FTVTVPKDLYVVEYGSNMTIECKFPVEKQLDLAALEVHWFMEDKNIFSFVHGEEDLKVQHSSYRQRARLLKDQLSLGNAALQITDVKLQDAGVYTCLIGYKGADYKRITVKVNAPYNKINQRILVVDPVTSEHELTCQAEGYPKAEVIWTSSDHQVLSGKTTTTNSKREEKLFNVTSTLRINTTTNEIFYCTFRRLDPEENHTAELVIPEL
B3: high affinity PDL-1 molecule L3C7c (ligand)
chain: B2 chain with F1W
B4: high affinity PDL-1 molecule L32G5 (ligand)
chain: B2 chain with E36I, H38Y, F40E, F47I, S48Q, K101H
B5: high affinity PDL-1 molecule L22D5 (ligand)
chain: B2 chain with E36Q, T95R, L97M, G99S, K101G
B6: high affinity PDL-1 molecule L3C7b (ligand)
chain: B2 chain with T95V
B7: high affinity PDL-1 molecule L22A5 (ligand)
chain: B2 chain with E36Q, F47P, T95R, L97M, G99S, K101G
B8: high affinity PDL-1 molecule L3D9 (ligand)
chain: B2 chain with E36N, H38F, F47I, S48Q, K101E
B9: high affinity PDL-1 molecule L22C7 (ligand)
chain: B2 chain with F47I, T95R, L97M, G99S, K101G
B10: high affinity PDL-1 molecule L3G10 (ligand)
chain: B2 chain with E36T, H38A, F40Y, F47I, S48Q, K101D

Numbering of substitutions follows the chain as printed.

T1 sequence (Q15116 33-150 limits assumed): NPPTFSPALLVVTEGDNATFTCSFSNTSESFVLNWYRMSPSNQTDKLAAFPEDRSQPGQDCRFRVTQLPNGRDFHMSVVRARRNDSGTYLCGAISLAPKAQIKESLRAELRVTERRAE

The assay addresses T1, PD-1 molecule (refolded, purified and biotinylated PD-1 of Example 2) (UniProt Q15116 33-150, biotinylated with BirA enzyme (site not stated)).
T1 construct: also called Programmed Death-1
Nature of the assay: SPR (BIAcore T200), single-cycle kinetics; biotinylated PD-1 captured via streptavidin, PDL-1 variant in solution. As for the experimental part: The anti-streptavidin antibody (GenScript) was added to the coupling buffer (10 mM sodium acetate buffer, pH 4.77). The antibody was then flowed through a CMS chip previously activated with EDC and NHS to immobilize the antibody on the chip surface. Finally, the unreacted activation surface was blocked with a solution of ethanolamine hydrochloride to complete the coupling process.
A low concentration of streptavidin is allowed to flow over the surface of the antibody-coated chip, then the biotinylated PD-1 is passed through the detection channel and the other channel is used as a reference channel. Then, 0.05 mM biotin was passed through the chip at a flow rate of 10 μL/min for 2 min to block the remaining binding sites of streptavidin. The single-cycle kinetic analysis method was used to measure its affinity. […] The binding time for each injection was 120 s, and it was disassociated for 600 s after the last injection. The chips were regenerated with 10 mMGly-HCl, pH 1.75 after each round of assays. Kinetic parameters were calculated using BIAcore Evaluation software.
Background: In SPR one partner is held on a chip, and binding of the other changes the refractive index at the surface.
The Kd is the equilibrium constant for the complex coming apart. High values mean a looser complex, low ones a tighter complex. In general, koff refers to a measure of how fast the partners let go of each other. Low values mean a long-lived complex, high ones a short-lived complex. For orientation: kon means a measure of how fast the partners come together. Lower therefore signals slower complex formation. Regarding B1, the dissociation constant Kd was determined as 0.0539 µM, the off-rate constant (koff) worked out at 0.0059 s⁻¹ and the kon is 109000 M⁻¹ s⁻¹.
B2: the affinity, expressed as Kd, was 0.115 µM; the koff came out at 0.0139 s⁻¹; the kon was determined as 120000 M⁻¹ s⁻¹.
Consider B3, for which the affinity, expressed as Kd, was 0.106 µM; the koff is 0.0155 s⁻¹; the kon amounted to 147000 M⁻¹ s⁻¹.
In turn, B4 displayed a dissociation constant Kd of 2.98 µM, a dissociation rate constant (koff) of 0.169 s⁻¹ and a kon of 56600 M⁻¹ s⁻¹.
The molecule B5 came in with a Kd of 6.48 µM, a koff of 0.268 s⁻¹ and a kon of 41400 M⁻¹ s⁻¹.
With B6, the Kd worked out at 0.123 µM, the koff stood at 0.0176 s⁻¹ and the kon is 143000 M⁻¹ s⁻¹.
On to B7, for which the affinity, expressed as Kd, was 4.84 µM; the koff came out at 0.0559 s⁻¹; the kon was determined as 11500 M⁻¹ s⁻¹.
As to B8, the Kd came to 3.39 µM, the koff was 0.0871 s⁻¹ and the kon was 25700 M⁻¹ s⁻¹.
In the same order, the values of B9 are 11.9 µM, 0.133 s⁻¹ and 11200 M⁻¹ s⁻¹.
On the same counts, the results for B10 are 11.8 µM, 0.263 s⁻¹ and 22200 M⁻¹ s⁻¹.

The values above are taken from patent publication US20180291081A1 (GUANGZHOU INSTITUTES OF BIOMEDICINE AND HEALTH CHINESE …, published 2018).
